Test results reported in doi:10.1101/2023.12.08.570772 (bioRxiv, 2023).
Positions count from the first letter of the chain named.

T1: Full length MAGEA4 M161D (human, UniProt P43358 1-317, M161D)
T1 sequence: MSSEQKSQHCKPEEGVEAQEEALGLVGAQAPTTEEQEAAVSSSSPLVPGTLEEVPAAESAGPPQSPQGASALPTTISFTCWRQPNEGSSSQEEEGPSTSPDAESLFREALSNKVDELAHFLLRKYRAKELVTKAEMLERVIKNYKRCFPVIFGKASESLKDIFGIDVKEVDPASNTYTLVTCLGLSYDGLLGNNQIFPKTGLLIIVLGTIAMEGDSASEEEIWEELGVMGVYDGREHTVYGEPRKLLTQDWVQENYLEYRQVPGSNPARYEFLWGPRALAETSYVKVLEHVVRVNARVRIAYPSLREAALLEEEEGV

B1: Full length MAGEA4 WT (N-terminal histidine tag) (natural protein)
chain: T1 sequence with D161M
B2: RAD18 R6BD peptide (27 amino acid peptide containing amino acids 340-366 of RAD18) (peptide)
peptide: SKYRKKHKSEFQLLVDQARKGYKKIAG

Legend:
[1] = biological target: His-tagged full length (FL) wildtype (WT) RAD18 (human, UniProt Q9NS91 1-495); test: cross-linking
Sequence of His-tagged full length (FL) wildtype (WT) RAD18 (Q9NS91 whole entry): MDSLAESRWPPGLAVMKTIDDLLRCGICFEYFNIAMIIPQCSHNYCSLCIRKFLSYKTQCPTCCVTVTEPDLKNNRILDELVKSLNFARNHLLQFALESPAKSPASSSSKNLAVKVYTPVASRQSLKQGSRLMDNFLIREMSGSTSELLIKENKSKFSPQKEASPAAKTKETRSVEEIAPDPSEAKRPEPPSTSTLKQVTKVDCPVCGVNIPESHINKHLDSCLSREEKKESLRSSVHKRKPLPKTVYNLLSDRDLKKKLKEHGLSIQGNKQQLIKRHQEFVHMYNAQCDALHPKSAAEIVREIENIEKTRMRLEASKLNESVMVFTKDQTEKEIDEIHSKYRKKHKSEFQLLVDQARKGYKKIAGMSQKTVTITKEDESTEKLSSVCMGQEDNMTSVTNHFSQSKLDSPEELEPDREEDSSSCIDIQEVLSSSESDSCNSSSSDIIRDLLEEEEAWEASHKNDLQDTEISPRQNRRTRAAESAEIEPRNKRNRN

Full length MAGEA4 M161D = biological target: T1, Full length MAGEA4 M161D; test: ITC
[2] = biological target: B1; test: ITC

| Binder | binding result [1] | Kd (Full length MAGEA4 M161D) [µM] | Kd [2] [µM] |
| --- | --- | --- | --- |
| B1 | binds | – | – |
| B2 | – | 1.66 | 0.405 |
